Experimental data as given in publication PMC7404307.

Target: ternary troponin complex I-T-C (cTnI-cTnT-cTnC) (UniProt P19429+P45379+P63316)
Experiment: SPR imaging
Details: L-DNA (all L-2'-deoxyribose); SPRi: PBS (10 mM phosphate, 137 mM NaCl, 2.7 mM KCl, pH 7.4), 25 C; filter binding: PBS, RT, 1 h; AlphaLisa: selection buffer (PBS, 1 mg/mL BSA, 0.01 ug/mL …)

| Sequence | Kd [nM] |
| --- | --- |
| CAGTGAGTGATGGTGAGGGCTTAGTTCGCCGCTCATGCCGAATCTCCTGTATAAATACCCACACTGTCCATACACG [A6 spiegelmer] | 0.54 |
| CAGTGAGTGATGGTGAGGGTGAATCGGTGTCGACTATTAAATTAAGTTGTGGTTGTTCCCACACTGTCCATACACG [C6 spiegelmer] | 0.305 |
